Key:
Assay type in all cases: biochemical
[1] = tested on: four mismatch primers; test: PCR screen of clones with four mismatch primers; conditions: 292 base pair product, 50 cycles of PCR
Description: The resultant clones from both CSR and CST were screened and ranked by PCR assay. Briefly, 2 μl of induced cells were added to 20 μl of PCR mix with the relevant 4 mismatch primers. Clones that produced a band were then subjected to further analysis and their activity on single, double and quadruple mismatch primers (single mismatch primers: 5′-CAGGAAACAGCTATGACAAAAATCTAGATAACGAGGGA-3′ (SEQ ID NO: 48) and 5′-GTAAAACGACGGCCAGTACCACCGAACTGCGGGTGACGCCAAGCC 3′ (SEQ ID NO: 49); double mismatch primers: CAGGAAACAGCTATGACTCGACAAAAATCTAGATAACGACC (SEQ ID NO: 50) and GTAAAACGACGGCCAGTTTATTAACCACCGAACTGC (SEQ ID NO: 51); four mismatch primers above.) was investigated. Polymerases that could extend all of these mismatches were found, though many polymerases could do only one of the mismatches and […].
The best first and second round clones were shuffled as described above and subjected to another round of CSR. The same two sets of mismatch primers with four mismatches at their 3′ end were used in the emulsion as two separate sources of selective pressure. This was then dealt with as above and the resultant clones were screened and ranked by PCR assay (as above). Once again, polymerases that could extend all of these mismatches were found. In particular, clones 3B5.

[2] = tested on: template containing an abasic site; test: Translesion replication assay (primer extension), abasic site; conditions: gel-extension assay, 60° C.
Description: Template primers 22 (undamaged) or 23 (containing a synthetic abasic site) were synthesized by Lofstrand Laboratories (Gaithersburg, Md.). Template primer 24 (containing a single cis-syn thymine dimer), was synthesized as described (34). Primer 25 was ^32P-labeled and annealed to one of the three templates 22, 23, 24 (at a primer template ratio of molar 1:1.5) and extended in 40 mM Tris.HCl at pH 8.0, 5 mM MgCl2, 100 μM of each dNTP, 10 mM DTT, 250 μg/ml BSA, 2.5% glycerol, 10 nM primer-template DNA and 0.1 Unit of polymerase at 60° C. for various times.
Primer extension assays were essentially as described in (Ghadessy et al., 2004). Briefly, undamaged oligonucleotides and a 51mer containing a synthetic abasic site were synthesized by Lofstrand Laboratories (Gaithersburg, Md.) using standard techniques and were gel purified prior to use. A 20mer primer (LES—20 P) with the sequence 5′-[…]-3′ (SEQ ID NO: 99) was 5′-labeled with [^32P]ATP (5000 Ci/mmole; 1 Ci=37 GBq) (Pharmacia) using T4 polynucleotide kinase (Invitrogen, Carlsbad Calif.). Radiolabeled primer-template DNAs were prepared by annealing the 5′[^32P] labeled 20mer primer to one of the two following 51mer templates (at a primer template ratio of molar 1:1.5). 1) undamaged DNA (UNDT51T); 5′-AGCTACCATGCCTGCACGAATTCGGCATCCGTCGCGACCACGGTCGCAGCG-3′ (SEQ ID NO: 100); 2) an oligo (LABA51T) containing a synthetic abasic site (indicated as an X in bold font); 5′-AGCTACCATGCCTGCACGACA XCG GCATCCGTCGCGACCACGGTCGCAGCG-3′ (SEQ ID NO: 101). Standard replication reactions of 10 contained 40 mM Tris.HCl at pH 8.0, 5 mM MgCl2, 100 μM of each ultrapure dNTP (Amersham Pharmacia Biotech, NJ), 10 mM DTT, 250 μg/ml BSA, 2.5% glycerol, 10 nM 5′[32P] primer-template DNA and 0.1 Unit of polymerase. After incubation at 60° C. for various times reactions were terminated by the addition of 10 μl of 95% formamide/10 mM EDTA and the samples heated to 100° C. for 5 min. Reaction mixtures (5 μl) were subjected to 20% polyacrylamide/7 M Urea gel electrophoresis and replication products visualized by PhosphorImager analysis.

[3] = tested on: primers with an abasic site seven bases from their 3′ end; test: Abasic site bypass in PCR; conditions: 176 bp product, 20 cycles of PCR
Description: FIG. 10. A list of polymerases selected to extend four mismatches were assayed for their ability to extend abasic sites in PCR. Primers with an abasic site seven bases from their 3′ end were designed. Such primers will prevent exponential amplification of the target sequence, restricting it to […] amplification, unless the abasic site is bypassed. […] (A) Screen which identified clone A10. (B) A further 4 polymerases that display good abasic site bypass. Lane M: markers, Hae III digest of Φ X174.
A list of polymerases selected to extend four mismatches were assayed for their ability to extend abasic sites in PCR (FIG. 10).

Row | Molecule | extension of primers containing four mismatches in PCR [1] | extension of primers containing four mismatches in PCR ([1]; listed as C12) | abasic site bypass in primer extension [2] | amplification product in PCR with abasic site primers [3] | extension of primers containing four mismatches in PCR ([1]; listed as B8)
1 | 3C12: third round clone, four mismatch extension; SEQ ID NO: 96 (protein, Mutant Taq polymerase) MAMLPLFEPKGRVLLVDGHHLAYRTFFALKGPTTSRGEPVQVVYGFAKSLLKALKEDGYKAVFVVFDAKAPSFRHKAYEAYRAGRAPTPEDFPRQLALIKELVDLLGFTRLEVPGYEADDVLATLAKKAEKEGYEVRILTADRGLYQLVSDRVAVLHPEGHLITPEWLWEKYGLRPEQWVDFRALVGDPSDNLPGVKGIGEKTALKLLKEWGSLENLLKNLDRVKPENVREKIKAHLEDLRLSLELSRVRTDLPLEVDLAQGREPDREGLRAFLERLEFGSLLHEFGLLESPKALEEAPWPPPEGAFVGFVLSRKEPMWADLLALAAARGGRVHRAPEPYKALRDLKEARGLLAKDLSVLALREGLGLPPGDDPMLLAYLLDPSNTAPEGVARRYGGEWTEEAGERAALSERLFANLWGRLEGEERLLWLYREVDRPLSAVLAHMEATGVRLDVACLQALSLELAEEIRRLEEEVFRLAGHPFNLNSRDQLERVLFDELGLPAIGKTEKTGKRSTSAAILEALREAHPIVEKILQYRELTKLKSTYIDPLPDLIHPRTGRLHTRFNQTATATGRLSSSGPNLQNIPVRTPLGQRIRRAFVAEEGWLLVVLDYSQIELRVLAHLSGDENLTRVFLEGRDIHTETASWMFGVPREAVDPLMRRAAKTINFGVLYGMSAHRLSQELAIPYEEAQAFIERYFQSFPKVRAWIEKTLEEGRKRGYVETLFGRRRYVPDLNARVKSVREAAERMAFNMPVQGTAADLMKLAMVKLFPRLREMGARMLLQVHDELLLEAPQARAEEVAALAKEAMEKAYPLAVPLEVKVGIGEDWLSAKE | able to extend primers containing four mismatches | can also extend four mismatched primers in PCR | improved abasic site activity | produced an amplification product | –
2 | 3B6: third round clone, abasic site bypass; SEQ ID NO: 90 (protein, Mutant Taq polymerase) MAMLPLFEPKGRVLLVDGHHLAYRAFFALKGLTTSRGEPVQAVYGFAKSLLKALKEDGYKAVFVVFDAKAPSFRHEAYEAYKAGRAPTPEDFPRQLALIKELVDLLGFTRLEVQGYEADDVLATLAKKAEKEGYEVRILTADRDLYQLVSDRVAVLHPEGHLITPEWLWEKYGLRPEQWVDFRALVGDPSNNLPGVKGIGEKTALKLLKEWGSLENLLKNLDRVKPENVREKIKAHLEDLRLSLELSRVRTDLPLEVDLAQGRELDRERLRAFLERLEFGGLLHEFGLLESPKALEEAPWPPPEGAFVGFVLSRKEPMWADLLALAAARGGRVHRAPEPYKALRDLKEARGLLAKDLSVLALREGLGLPPGDDPMLLAYLLDPSNTAPEGVARRYGGEWTEEAGERAALSERLFANLWGRLEGEERLLWLYREVDRPLSAVLAHMEATGVRLDVAYLRALSLEVAEEIARLEAEVFRLAGHPFNLNSRDQLERVLFDELGLPAIGKTEKTGKRSTSAAVLEALREAHPIVEKILQYRELTKLKSTYIDPLPNLIHPRTGRLHTRFNQTATATGRLSSSDPNLQNIPVRTPLGQRIRRAFIAEEGWLLVVLDYSQIELRVLAHLSGDENLIRVFQEGRDIHTETASWMFGVPREAVDPLMRRAAKTINFGVLYGMSAHRLSQELAIPYEEAQAFIERYFQSFPKVRAWIEKTLEEGRKRGYVETLFGRRRYVPDLNARVKGVREAAERMAFNMPVQGTAADLMKLAMVKLFPRLREMGARMLLQVHDELLLEAPQARAGEVAALAKEAMEKAYPLAVPLEVKVGIGEDWLSAKE | cannot | – | – | produced an amplification product | –
3 | 3B8: third round clone; SEQ ID NO: 92 (protein, Mutant Taq polymerase) MAMLPLFEPKGRVLLVDGHHLAYRTFFALKGLTTSRGEPVQVVYGFAKSLLKALKEDGYKAVFVVFDAKAPSLRHEAYEAYKAGRAPTPEDFLRQLALIKELVDLLGFTRLEVQGYEADDVLATLAKKAEKEGYEVRILTADRDLYQLVSDRVAVLHPEGHLITPEWLWEKYGLRPEQWVDFRALVGDPSDNLPGVKGIGEKTALKLLKEWGSLENLLKNLDRLKPAIREKILAHMDDLKLSWDLAKVRTDLPLEVDFAKRREPDRERLRAFLERLELGSLLHEFGLLESPKTLEEASWPPPEGAFVGFVLSRKEPMWADLLALAAARGGRVHRAPEPYKALRDLKEARGLLAKDLSVLALREGLGLPPGDDPMLLAYLLDPSNTTPEGVARRYGGEWTKEAGERAALSERLFANLWGRLEGEERLLWLYREVDRPLSAVLAHMEATGVRLDVAYLRALSLEVAEEIARLEAEVFRLAGHPFNLNSRDQLERVLFDELGLPAIGKTEKTGKRSTSAAVLEALREAHPIVEKILQYRELTKLKSTYIDPLPDLIHPRTGRLHTRFNQTATATGRLSSSDPNLQNIPVRTPLGQRIRRAFVAEEGWLLVVLDYSQIELRVLAHLSGDENLTRVFLEGRDIHTETASWMFGVPREAVDPLMRRAAKTINFGVLYGMSAHRLSQELAIPYEEAQAFIERYFQSFPKVRAWIEKTLEEGRKRGYVETLFGRRRYVPDLNARVKSVREAAERMAFNMPVQGTAADLMKLAMVKLFPRLREMGARMLLQVHDELLLEAPQARAEEVAALAKEAMEKAYPLAVPLEVKEGIGEDWLSAKE | able to extend primers containing four mismatches | – | – | produced an amplification product | cannot
4 | 3B5: third round clone, four mismatch extension; SEQ ID NO: 88 (protein, Mutant Taq polymerase) MAMLPLFEPKGRVLLVDGHHLAYRTSFALKGPTTSRGEPVQVVYGFAKSLLKALKEDGYKAVFVVFDAKAPPFRHKAYEAYRAGRAPTPEDFPRQLALVKELVDLLGFTRLEVPGYEADDVLATLAKKAEKEGYEVRILTADRGLYQLVSDRVAVLHPEGHLITPEWLWEKYGLRPEQWVDFRALVGDPSDNLPGVKGIGEKTALKLLKEWGSLENLLKNLDRVKPENVREKIKAHLEDLRLSLELSRVRTDLPLEVDLAQGREPDRERLRAFLERLEFGSLLHEFGLLESPKALEEAPWPPPEGAFVGFVLSRKAPMWADLLALAAARGGRVYRAPEPYKALRDLKEARGLLAKDLSVLALREGLGLPPGDDPMLLAYLLDPSNTTPEGVARRYGGEWTEEAGERAALSERLFANLWGRLEGEERLLWLYREVDRPLSAVLAHMEATGVRLDVACLQALSLELAEEIRRLEEEVFRLAGHTFNLNSRDQLERVLFDELGLPAIGKTEKTGKRSTSAAILEALREAHPIVEKILQYRELTKLKSTYIDPLPDLIHPRTGRLHTRFNQTATATGRLSSSDPNLQNIPVRTPLGQRIRRAFIAEEGWLLVVLDYSQIELRVLAHLSGDENLIRVFQEGRDIHTETASWMFGVPREAVDPLMRRAAKTINFGVLYGMSAHRLSQELAIPYEEAQAFIERYFQSFPKVRAWIEKALEEGRRRGYVETLFGRRRYVPDLNARVKSVREAAERMAFNMPVQGTAADLMKLAMVKLFPRLREMGARMLLQVHDELLLEAPQARAEEVAALAKEAMEKAYPLAVPLEVKVGIGEDWLSAKE | able to extend primers containing four mismatches | – | – | – | –
